According to patent publication US20180339041A1 (Kyowa Kirin, published 2018):
“And” between values parts separate entries of the source, which are not always exact repeats. Identical values can stand only once.

Target: T1, C-terminally FLAG-tagged human Gas6 recombinant protein (hGas6-F) (human, UniProt Q14393 31-678, gamma-carboxylated glutamic acid residues in the Gla domain (producer cells co-express rat VKOR and human GGCX); positions not given)
T1 construct: also called human Gas6-F; human Gas6 protein
T1 sequence: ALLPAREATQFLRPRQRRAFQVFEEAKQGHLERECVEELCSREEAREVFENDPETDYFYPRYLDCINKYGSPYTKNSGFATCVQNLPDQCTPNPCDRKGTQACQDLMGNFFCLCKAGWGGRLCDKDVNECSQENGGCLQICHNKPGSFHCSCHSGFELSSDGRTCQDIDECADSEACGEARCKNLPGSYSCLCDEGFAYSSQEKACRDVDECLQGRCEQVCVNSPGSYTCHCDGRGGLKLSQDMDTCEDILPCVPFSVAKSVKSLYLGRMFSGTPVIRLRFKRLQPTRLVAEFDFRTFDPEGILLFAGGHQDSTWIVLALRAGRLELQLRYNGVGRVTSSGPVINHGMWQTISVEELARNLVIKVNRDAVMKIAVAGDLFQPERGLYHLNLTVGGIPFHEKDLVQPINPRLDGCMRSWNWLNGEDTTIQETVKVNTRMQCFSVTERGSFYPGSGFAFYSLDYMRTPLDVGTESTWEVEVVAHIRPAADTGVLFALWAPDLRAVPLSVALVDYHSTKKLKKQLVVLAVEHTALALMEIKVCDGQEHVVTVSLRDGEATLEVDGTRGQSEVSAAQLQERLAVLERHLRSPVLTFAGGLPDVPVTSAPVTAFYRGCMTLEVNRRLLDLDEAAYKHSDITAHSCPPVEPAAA
Test: SPR Biacore T100, captured antibody, Gas6 analyte, first test
Protocol: An anti-human IgG antibody was immobilized on a CM5 sensor chip (manufactured by GE Healthcare Japan Corp.) using Human Antibody Capture Kit (manufactured by GE Healthcare Japan Corp.) according to the attached manual. Each test antibody adjusted to 1 μg/mL was added for 10 seconds at a flow rate of 10 μL/min to flow cells. […] The measurement was performed by the […] method. The obtained sensorgram was analyzed using Bia Evaluation Software (manufactured by GE Healthcare Japan Corp.), and the kinetic constant of each antibody was calculated.

Row | Binder | Kd | koff | kon
1 | hzKM5321 LV1bHV7 antibody (antibody, V domains shown, Humanized; variant human IgG4 constant region (EU S228P, L235E, R409K), human kappa; also called B-14; LV1bHV7) VH: QIHLVQSGPELKKPGASVKISCKASGYTFTNYGMNWVKQAPGQGLKWMGWINTNTGEPTYTEEFKGRFVFSLDTSVTTAYLQISTLKAEDTATYFCARDEGWFVYWGQGTLITVSS VL: ETTLTQSPSSLSASVGDRVTITCITSTDIDDDMNWYQQKPGKAPKLLISEGNTLRPGVPSRFSGSGSGTDFTLTISSLQPEDFADYYCLQTDSVPLTFGQGTKVEIK | < 7.49 nM | 0.000751 s⁻¹ | > 100000 M⁻¹ s⁻¹
2 | hzKM5321 LV1cHV0 antibody (antibody, V domains shown, Humanized; variant human IgG4 constant region (EU S228P, L235E, R409K), human kappa; also called B-05; LV1cHV0) VH: QVHLVQSGSELKKPGASVKISCKASGYTFTNYGMNWVRQAPGQGLEWMGWINTNTGEPTYTEEFKGRFVFSLDTSVTTSYLQISTLKAEDTAVYFCARDEGWFVYWGQGTLVTVSS VL: ETTLTQSPSSLSVSVGDRVTITCITSTDIDDDMNWYQQKPGKAPKLLISEGNTLRPGVPSRFSGSGSGTDFTLTISSLQPEDFATYYCLQTDSVPLTFGQGTKVEIK | < 4.05 nM | 0.000511 s⁻¹ | > 126000 M⁻¹ s⁻¹
3 | hzKM5321 LV1cHV7 antibody (antibody, V domains shown, Humanized; variant human IgG4 constant region (EU S228P, L235E, R409K), human kappa; also called B-15; LV1cHV7) VH: QIHLVQSGPELKKPGASVKISCKASGYTFTNYGMNWVKQAPGQGLKWMGWINTNTGEPTYTEEFKGRFVFSLDTSVTTAYLQISTLKAEDTATYFCARDEGWFVYWGQGTLITVSS VL: ETTLTQSPSSLSVSVGDRVTITCITSTDIDDDMNWYQQKPGKAPKLLISEGNTLRPGVPSRFSGSGSGTDFTLTISSLQPEDFATYYCLQTDSVPLTFGQGTKVEIK | < 7.45 nM | 0.00075 s⁻¹ | > 101000 M⁻¹ s⁻¹
4 | hzKM5321 LV3HV0 antibody (antibody, V domains shown, Humanized; variant human IgG4 constant region (EU S228P, L235E, R409K), human kappa; also called B-06; LV3HV0) VH: QVHLVQSGSELKKPGASVKISCKASGYTFTNYGMNWVRQAPGQGLEWMGWINTNTGEPTYTEEFKGRFVFSLDTSVTTSYLQISTLKAEDTAVYFCARDEGWFVYWGQGTLVTVSS VL: ETTLTQSPSSLSASTGDRVTITCITSTDIDDDMNWYQQKPGKAPKLLISEGNTLRPGVPSRFSGSGSGTDFTLTISSTQPEDFADYYCLQTDSVPLTFGQGTKVEIK | < 1.86 nM | 0.000285 s⁻¹ | > 153000 M⁻¹ s⁻¹
5 | hzKM5321 LV3HV7 antibody (antibody, V domains shown, Humanized; variant human IgG4 constant region (EU S228P, L235E, R409K), human kappa; also called B-16; LV3HV7) VH: QIHLVQSGPELKKPGASVKISCKASGYTFTNYGMNWVKQAPGQGLKWMGWINTNTGEPTYTEEFKGRFVFSLDTSVTTAYLQISTLKAEDTATYFCARDEGWFVYWGQGTLITVSS VL: ETTLTQSPSSLSASTGDRVTITCITSTDIDDDMNWYQQKPGKAPKLLISEGNTLRPGVPSRFSGSGSGTDFTLTISSTQPEDFADYYCLQTDSVPLTFGQGTKVEIK | < 7.03 nM | 0.000712 s⁻¹ | > 101000 M⁻¹ s⁻¹
6 | hzKM5321 LV4HV0 antibody (antibody, V domains shown, Humanized; variant human IgG4 constant region (EU S228P, L235E, R409K), human kappa; also called B-07; LV4HV0) VH: QVHLVQSGSELKKPGASVKISCKASGYTFTNYGMNWVRQAPGQGLEWMGWINTNTGEPTYTEEFKGRFVFSLDTSVTTSYLQISTLKAEDTAVYFCARDEGWFVYWGQGTLVTVSS VL: ETTLTQSPSSLSVSTGDRVTITCITSTDIDDDMNWYQQKPGKAPKLLISEGNTLRPGVPSRFSGSGSGTDFTFTISSTQPEDFATYYCLQTDSVPLTFGQGTKVEIK | < 4.38 nM | 0.000551 s⁻¹ | > 126000 M⁻¹ s⁻¹
7 | hzKM5321 LV4HV7 antibody (antibody, V domains shown, Humanized; variant human IgG4 constant region (EU S228P, L235E, R409K), human kappa; also called B-17; LV4HV7) VH: QIHLVQSGPELKKPGASVKISCKASGYTFTNYGMNWVKQAPGQGLKWMGWINTNTGEPTYTEEFKGRFVFSLDTSVTTAYLQISTLKAEDTATYFCARDEGWFVYWGQGTLITVSS VL: ETTLTQSPSSLSVSTGDRVTITCITSTDIDDDMNWYQQKPGKAPKLLISEGNTLRPGVPSRFSGSGSGTDFTFTISSTQPEDFATYYCLQTDSVPLTFGQGTKVEIK | < 8.59 nM | 0.000859 s⁻¹ | > 100000 M⁻¹ s⁻¹
8 | hzKM5321 LV6HV0 antibody (antibody, V domains shown, Humanized; variant human IgG4 constant region (EU S228P, L235E, R409K), human kappa; also called B-08; LV6HV0) VH: QVHLVQSGSELKKPGASVKISCKASGYTFTNYGMNWVRQAPGQGLEWMGWINTNTGEPTYTEEFKGRFVFSLDTSVTTSYLQISTLKAEDTAVYFCARDEGWFVYWGQGTLVTVSS VL: ETTLTQSPSSLSVSTGDRVTITCITSTDIDDDMNWYQQKPGKPPKLLISEGNTLRPGVPSRFSSSGSGTDFTLTISSTQPEDFADYYCLQTDSVPLTFGQGTKVEIK | < 1.19 nM | 0.000159 s⁻¹ and 0.000238 s⁻¹ | > 134000 M⁻¹ s⁻¹
9 | hzKM5321 LV6HV2a antibody (antibody, V domains shown, Humanized; variant human IgG4 constant region (EU S228P, L235E, R409K), human kappa; also called B-23; LV6HV2a) VH: QVHLVQSGSELKKPGASVKISCKASGYTFTNYGMNWVKQAPGQGLKWMGWINTNTGEPTYTEEFKGRFVFSLDTSVTTSYLQISTLKAEDTAVYFCARDEGWFVYWGQGTLVTVSS VL: ETTLTQSPSSLSVSTGDRVTITCITSTDIDDDMNWYQQKPGKPPKLLISEGNTLRPGVPSRFSSSGSGTDFTLTISSTQPEDFADYYCLQTDSVPLTFGQGTKVEIK | < 2.07 nM | 0.000212 s⁻¹ | > 102000 M⁻¹ s⁻¹
